Assay [1] concerns the target T1, TLN1-F3^K402E (UniProt P26039 305-405, K402E).
T1 construct: source: E. coli (DE3) Rosetta 2, purified (IMAC, SEC); not shown: His10, N-terminal, cleaved; SUMO, N-terminal, cleaved
In words: NMR titration; isotope-labelled β1-CT observed; TLN1-F3 and ΔKIND2 (wild type or K402E / Y13A) added together, ternary complex; 20 mM Tris, 200 mM NaCl, 1 mM DTT, pH 7.5, 298 K. To be noted: both partners purified.

Assay [2] concerns the target T2, F3 domain of TLN1 (TLN1-F3) (UniProt P26039 305-405).
T2 construct: Used unlabelled, 15N-labelled or partially deuterated in NMR; also called T1-F3; source: E. coli (DE3) Rosetta 2, purified (IMAC, SEC); not shown: His10, N-terminal, cleaved; SUMO, N-terminal, cleaved
In words: NMR titration; isotope-labelled β1-CT observed (1H-15N HSQC, 1H-13C methyl correlations); unlabelled TLN1-F3 or ΔKIND2 added alone at increasing stoichiometries; 20 mM Tris, 200 mM NaCl, 1 mM DTT, pH 7.5, 298 K. To be noted: both partners purified.

In assay [3] the target is T3, THD1^K402E (UniProt P26039 1-405, K402E).
T3 construct: talin-1 (TLN1) head domain, residues 1-405, with K402E; In FC-RDA a copy labelled with ATTO 565 was the reporter; also called 565–THD1^K402E; source: E. coli (DE3) Rosetta 2, purified (IMAC, SEC); not shown: His10, N-terminal, cleaved; SUMO, N-terminal, cleaved
T3 sequence (P26039 1-405 K402E): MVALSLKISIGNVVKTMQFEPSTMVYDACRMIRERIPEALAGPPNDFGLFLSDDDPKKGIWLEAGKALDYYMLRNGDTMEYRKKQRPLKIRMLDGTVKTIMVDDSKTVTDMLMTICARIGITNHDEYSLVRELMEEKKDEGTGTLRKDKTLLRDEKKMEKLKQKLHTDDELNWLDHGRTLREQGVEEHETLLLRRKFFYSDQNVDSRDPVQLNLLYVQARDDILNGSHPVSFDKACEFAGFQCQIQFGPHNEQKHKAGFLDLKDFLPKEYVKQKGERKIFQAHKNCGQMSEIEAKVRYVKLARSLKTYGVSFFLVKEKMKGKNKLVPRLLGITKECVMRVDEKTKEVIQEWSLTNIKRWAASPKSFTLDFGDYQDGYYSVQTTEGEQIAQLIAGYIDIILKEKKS
In words: MST; ATTO 488-labelled β-CT peptide (50–200 nM) held constant, one unlabelled protein titrated; 20 mM Tris pH 7.5, 200 mM NaCl, 1 mM TCEP, 0.05% Tween-20; apparent affinities (near-saturation only). To be noted: both partners purified.

The target in assay [4] is T4, talin-1 head domain (THD1) (UniProt P26039 1-405).
T4 construct: talin-1 (TLN1) head domain (F0-F3), residues 1-405; In FC-RDA a copy labelled with ATTO 565 (565–THD1) was the reporter; also called 565–THD1; source: E. coli (DE3) Rosetta 2, purified (IMAC, SEC); not shown: His10, N-terminal, cleaved; SUMO, N-terminal, cleaved
The assay is described as above. To be noted: both partners purified.

For assay [5], the target named is T5, talin-2 head domain (THD2) (UniProt Q71LX4 1-408).
T5 construct: talin-2 (TLN2) head domain, residues 1-408; source: E. coli (DE3) Rosetta 2, purified (IMAC, SEC); not shown: His10, N-terminal, cleaved; SUMO, N-terminal, cleaved
Described as above. The note with it: both partners purified.

Assay [6] addresses T6, kindlin-2 (KIND2) (UniProt Q8CIB5 1-680).
T6 construct: kindlin-2 (KIND2) without the deletions of ΔKIND2; In FC-RDA a copy labelled with Alexa 647 (647–KIND2) was the reporter; also called 647–KIND2; source: E. coli Rosetta, purified (IMAC, SEC); not shown: His10, N-terminal, cleaved; SUMO, N-terminal, cleaved
T6 sequence (looked up): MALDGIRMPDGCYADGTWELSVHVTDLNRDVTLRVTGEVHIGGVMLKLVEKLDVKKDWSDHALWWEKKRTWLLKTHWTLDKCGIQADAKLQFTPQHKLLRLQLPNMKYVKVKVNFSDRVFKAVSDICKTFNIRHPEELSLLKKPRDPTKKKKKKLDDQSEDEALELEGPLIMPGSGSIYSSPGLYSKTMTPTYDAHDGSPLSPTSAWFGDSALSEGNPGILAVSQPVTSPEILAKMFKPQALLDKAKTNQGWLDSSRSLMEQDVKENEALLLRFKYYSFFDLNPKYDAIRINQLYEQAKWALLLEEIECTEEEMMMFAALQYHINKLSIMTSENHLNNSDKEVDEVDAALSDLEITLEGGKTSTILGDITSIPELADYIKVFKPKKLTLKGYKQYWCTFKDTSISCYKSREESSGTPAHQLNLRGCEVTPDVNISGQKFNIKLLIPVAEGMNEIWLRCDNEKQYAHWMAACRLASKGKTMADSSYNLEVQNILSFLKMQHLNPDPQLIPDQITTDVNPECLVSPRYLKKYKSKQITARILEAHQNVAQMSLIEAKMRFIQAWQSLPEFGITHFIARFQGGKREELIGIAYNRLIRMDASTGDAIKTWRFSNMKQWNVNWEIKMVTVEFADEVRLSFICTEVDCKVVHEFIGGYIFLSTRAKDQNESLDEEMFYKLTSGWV
The assay is described as above. To be noted: both partners purified.

Assay [7] addresses T7, KIND2^Y13A (UniProt Q8CIB5 1-680, Y13A).
T7 construct: kindlin-2 (KIND2) with Y13A; In FC-RDA a copy labelled with Alexa 647 was the reporter; also called 647–KIND2^Y13A; source: E. coli Rosetta, purified (IMAC, SEC); not shown: His10, N-terminal, cleaved; SUMO, N-terminal, cleaved
T7 sequence (looked up): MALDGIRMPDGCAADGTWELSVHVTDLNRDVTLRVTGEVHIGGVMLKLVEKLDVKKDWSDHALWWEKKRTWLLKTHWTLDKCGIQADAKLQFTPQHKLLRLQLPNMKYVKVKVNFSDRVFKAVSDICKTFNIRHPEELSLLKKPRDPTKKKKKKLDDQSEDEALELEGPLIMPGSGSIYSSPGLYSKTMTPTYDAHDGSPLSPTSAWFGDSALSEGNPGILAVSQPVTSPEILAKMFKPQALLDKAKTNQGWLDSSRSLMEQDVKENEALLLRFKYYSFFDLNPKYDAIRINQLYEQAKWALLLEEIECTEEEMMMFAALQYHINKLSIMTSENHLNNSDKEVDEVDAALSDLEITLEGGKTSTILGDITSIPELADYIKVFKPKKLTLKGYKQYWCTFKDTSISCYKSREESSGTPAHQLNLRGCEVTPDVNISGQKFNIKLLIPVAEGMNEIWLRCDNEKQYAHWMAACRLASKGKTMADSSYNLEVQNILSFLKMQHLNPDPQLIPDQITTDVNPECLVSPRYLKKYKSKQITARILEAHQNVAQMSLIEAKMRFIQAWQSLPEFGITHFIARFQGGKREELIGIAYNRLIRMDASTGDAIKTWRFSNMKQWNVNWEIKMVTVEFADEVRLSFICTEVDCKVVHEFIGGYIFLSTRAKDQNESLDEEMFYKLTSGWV
The assay is described as above. The note with it: both partners purified.

In assay [8] the target is T8, F3 domain of TLN1 (TLN1-F3) (UniProt P26039 305-405).
T8 chain: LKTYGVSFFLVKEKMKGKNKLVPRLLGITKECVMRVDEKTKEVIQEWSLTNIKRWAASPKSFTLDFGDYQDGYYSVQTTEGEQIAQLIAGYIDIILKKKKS
Put plainly: MST.

Assay [9] deals with T9, F3 domain of TLN2 (TLN2-F3) (UniProt Q71LX4 311-408).
T9 chain: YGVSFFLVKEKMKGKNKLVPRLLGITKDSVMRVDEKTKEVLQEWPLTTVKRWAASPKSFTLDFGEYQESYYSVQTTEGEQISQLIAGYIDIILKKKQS
In words: MST.

Assay [10] has as its target T10, KIND2 lacking the flexible loop in F1 and the PH domain (ΔKIND2).
T10 chain: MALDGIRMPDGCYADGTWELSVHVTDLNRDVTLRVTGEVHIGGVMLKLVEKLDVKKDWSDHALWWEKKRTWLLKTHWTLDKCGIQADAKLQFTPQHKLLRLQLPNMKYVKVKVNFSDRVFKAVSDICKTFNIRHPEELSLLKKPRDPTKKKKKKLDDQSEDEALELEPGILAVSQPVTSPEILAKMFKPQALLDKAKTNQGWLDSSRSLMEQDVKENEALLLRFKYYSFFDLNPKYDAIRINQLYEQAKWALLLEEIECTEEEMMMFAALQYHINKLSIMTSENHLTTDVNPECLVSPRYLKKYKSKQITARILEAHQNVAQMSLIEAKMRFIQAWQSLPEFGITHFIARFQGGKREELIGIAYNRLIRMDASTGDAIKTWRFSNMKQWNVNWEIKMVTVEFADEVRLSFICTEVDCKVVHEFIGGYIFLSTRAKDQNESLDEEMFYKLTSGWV
In words: MST.

Assay [11] addresses T3, THD1^K402E. Put plainly: flow cytometry-based reporter-displacement assay (FC-RDA) on beads; biotinylated TM–CT in nanodiscs (10% PIP2 or PIP3, 90% DMPC) on streptavidin Dynabeads; reporters 100 nM 565–THD1 or 50 nM 647–KIND2; unlabelled THD1 or KIND2 titrated; 20 mM Tris pH 7.5, 200 mM NaCl, 10 min at room temperature; the lipids add to the binding. To be noted: both partners purified. (Flow cytometry measures light scatter and fluorescence of single cells or particles in a stream.)

The target in assay [12] is T4, talin-1 head domain (THD1). The description is as above. To be noted: both partners purified.
The target in assay [13] is T6, kindlin-2 (KIND2). Described as above. The note with it: both partners purified.
For assay [14], the target named is T7, KIND2^Y13A. The assay is described as above. The note with it: both partners purified.

Several values for one entry are separate records, joined by “and”; a condition that tells them apart may be missing. Equal entries are not always repeated. No end group written: not given here.

B1: integrin β1A cytoplasmic tail (β1-CT), recombinant (peptide, UniProt P05556-1 758-798, looked up)
chain: HDRREFAKFEKEKMNAKWDTGENPIYKSAVTTVVNPKYEGK
notes: integrin β1, splice isoform A, cytoplasmic tail, residues 758-798; DNA synthesised; 15N-, 13C,15N- or 2H,13C,15N-labelled when observed by NMR; also called β1A-CT; integrin-β1-CT; source: E. coli (DE3) Rosetta 2 in M9 medium, purified (IMAC, cation exchange); not shown: His10, N-terminal, cleaved; SUMO, N-terminal, cleaved
For B1, the binding result in assay [1] and in [2] was “binds” each time.

B2: ATTO 488-labelled β3-CT (488–β3-CT) (peptide, UniProt O54890 741-787, looked up)
peptide: {ATTO 488}-KLLITIHDRKEFAKFEEERARAKWDTANNPLYKEATSTFTNITYRGT
notes: integrin β3 cytoplasmic tail; source: synthetic peptide (MPIB Core Facility)
Turning to B2, the Kd in assay [3] is 34 µM; in assay [4], 108 µM and 105 µM; in [5] it was 39 µM; in [6] it was 9 µM; in [7], 9 µM; in [8] it was 106 µM. Besides, the Kd was determined as 98 µM in assay [9] and 6.8 µM in assay [10].

B3: β3 transmembrane and cytoplasmic tail polypeptide (β3-TM–CT) in nanodiscs (domain or fragment, UniProt O54890 715-787, looked up)
chain: GPDILVVLLSVMGAILLIGLATLLIWKLLITIHDRKEFAKFEEERARAKWDTANNPLYKEATSTFTNITYRGT
modifications: biotin (biotin-maleimide)
notes: integrin β3 transmembrane helix and cytoplasmic tail, residues 715-787; Embedded in nanodiscs of 10% PIP2 or PIP3 and 90% DMPC; held on streptavidin beads by the biotin; source: E. coli BL21 (DE3) Rosetta 2, inclusion bodies, purified (IMAC, cation exchange), put into MSP2N2 nanodiscs
Consider B3, for which the binding result in assay [11], in assay [12], in assay [13] and in assay [14] was “binds” throughout.
